Our source for the self-cleavage values is the RNAGym collection of RNA variant scans (doi:10.7554/elife.80360).

Sequences and labels used below:
B1: CPEB3 Ribozyme (parent)
chain: GGGGGCCACAGCAGAAGCGUUCACGUCGCGGCCCCUGUCAGAUUCUGGUGAAUCUGCGAAUUCUGCUGU

In the series the parent is B1. In words: self-cleavage, relative activity (ratio to wild type); higher = more cleavage; co-transcriptional.
In the case of A52U G56A, the self-cleavage was 0.909.

With A52U G56U, the self-cleavage was determined as 0.848. Consider U55C U67A, for which the self-cleavage was found to be 0.932. Consider U55C U67G, for which the self-cleavage amounted to 0.826. Turning to A51G G56A, the self-cleavage was 0.91. In the case of A51G G56C, the self-cleavage is 0.69. Take U55G G68U: the self-cleavage worked out at 0.874. On to U53A G56A, for which the self-cleavage was 0.736.

For U53A G56C, the self-cleavage was determined as 0.411. Next, G56C U64G: 0.533. With C54G U55A, the self-cleavage was 0.745. With C54G U55G, the self-cleavage worked out at 0.407. As to G58A U64G, the self-cleavage is 0.955. As for U55G C57A, the self-cleavage is 0.317. Next, A52U G65C: 0.549.

A52U G65U: the self-cleavage is 0.664. C54A C66G: the self-cleavage is 0.466. As for A52G U61A, the self-cleavage was 0.89. Turning to A52G U61G, the self-cleavage worked out at 0.861. For A59C, the self-cleavage worked out at 0.788.

Take U53A U69C: the self-cleavage came out at 1.06. As to G56A C63A, the self-cleavage is 0.648. In the case of C54A A59G, the self-cleavage was determined as 0.858. The figure for C54A A59C is 0.365; for C54A A59U it is 0.497. With C57A G68C, the self-cleavage is 0.5. Consider U55G G56U, for which the self-cleavage worked out at 0.817. As for U55G G56C, the self-cleavage came to 0.729. U53C C54U: the self-cleavage stood at 0.819. Consider C57A U61A, for which the self-cleavage came to 0.428. Next, C57A U61G: 0.402; A52C C63A: 0.795; C57G A59C: 0.3.

For the variant U55C U62C, the self-cleavage came out at 0.592.

For the variant U55C U62A, the self-cleavage was 0.445. Next, U53C G56U: 0.399; A52G G65U: 0.894. In the case of A52G G65C, the self-cleavage was 0.843. On to U53G C54A, for which the self-cleavage worked out at 0.873. In the case of C57U U61A, the self-cleavage was determined as 0.406. A51U C63A: the self-cleavage is 0.797. Next, U53A C66A: 0.509; U53G A59U: 0.576. The figure for A59C C66U is 0.727. For the variant A52C U62G, the self-cleavage stood at 0.806. Turning to C54G G56U, the self-cleavage stood at 0.46. Regarding G56A G68U, the self-cleavage turned out to be 1.04. Take G56A G68C: the self-cleavage stood at 0.992. Next, U53G C63A: 0.494; U53G C63G: 0.523. For U53G C63U, the self-cleavage turned out to be 0.849. Consider C54A G65C, for which the self-cleavage is 0.514. Consider U53A U67C, for which the self-cleavage was 0.975. As for C57A U69C, the self-cleavage was 0.499. For G56A C66A, the self-cleavage came to 0.702. Regarding C57U C63U, the self-cleavage stood at 0.34. For U55C U61G, the self-cleavage amounted to 0.434. Next, A52U U62C: 0.765; C57G G68U: 0.365; A52C U67G: 1. As for A52C U67C, the self-cleavage came out at 1. Take G58U U61A: the self-cleavage is 0.929. Consider U55A G65U, for which the self-cleavage worked out at 0.421. Next, U55A G65C: 0.491. Take A52G U53C: the self-cleavage came to 0.892.

A52G U53G: the self-cleavage was determined as 0.72. Next, A52G U67C: 0.944; A52G U67G: 1.02. In the case of U53A U55G, the self-cleavage was found to be 0.411. With U53A U55C, the self-cleavage was 0.43. On to A52C G56A, for which the self-cleavage was found to be 0.826. The figure for A51U U61C is 0.808; for A52U C63U it is 0.954. Regarding A51U A52U, the self-cleavage turned out to be 0.96.

As to A51U G65C, the self-cleavage was found to be 0.674.

As to G56U G68C, the self-cleavage turned out to be 0.963. Regarding G56U G68A, the self-cleavage was 1.05. The figure for U55G C66G is 0.451.

On to C54G A59U, for which the self-cleavage was 0.47. As to G58A U69C, the self-cleavage was found to be 1.06.

With A59C C63G, the self-cleavage stood at 0.316. The figure for A59C C63U is 0.633; for U55C A60U it is 0.388; for U55C A60G it is 0.602.

In the case of A52U U55G, the self-cleavage is 0.56. For the variant A52U U55A, the self-cleavage amounted to 0.7. Turning to C57U U64C, the self-cleavage is 0.556. As for C57U U64A, the self-cleavage is 0.392.

For the variant U53C U62C, the self-cleavage was 0.513. With G56C A59C, the self-cleavage came to 0.403.

With G56C A59G, the self-cleavage is 0.705. U55G U62G: the self-cleavage stood at 0.381. Consider A51G C66G, for which the self-cleavage stood at 0.84.

With A51G C66A, the self-cleavage was 0.875. A51G C66U: the self-cleavage amounted to 0.972. In the case of G58A U62G, the self-cleavage worked out at 0.884.

For the variant G58A U62A, the self-cleavage came to 0.939. On to A52G A60U, for which the self-cleavage is 0.506. Take G58U C63A: the self-cleavage turned out to be 0.951.

For the variant C54U G65U, the self-cleavage was found to be 0.809.

Take U55A U64A: the self-cleavage came out at 0.532.

As to G56C G65C, the self-cleavage turned out to be 0.57. Take G56C G65A: the self-cleavage was 0.459. U55A C63U: the self-cleavage came out at 0.736.

U55A U62A: the self-cleavage stood at 0.489. Next, U55A U62C: 0.67; C54G U62C: 0.483.

On to C54G U62G, for which the self-cleavage worked out at 0.609.

In the case of A51G U69C, the self-cleavage came to 1.06. As to C54A G56C, the self-cleavage worked out at 0.431. Next, A52U U64A: 0.87.

Consider U53C G58U, for which the self-cleavage worked out at 0.965. The figure for A52C G68A is 0.987; for A52C G68C it is 0.978; for C54A U62A it is 0.546. U53A C57A: the self-cleavage was determined as 0.402.

As for C54U A60G, the self-cleavage is 0.903.

C57U G65U: the self-cleavage came out at 0.375. For U53G G68C, the self-cleavage was 0.882. Regarding U53G G68U, the self-cleavage worked out at 0.986.

As for A52G C66G, the self-cleavage was 0.966.

Regarding U55A U67A, the self-cleavage is 0.921. For the variant U55A U67G, the self-cleavage was determined as 0.963.

In the case of A52U U69A, the self-cleavage stood at 1.03.

For the variant U55G U64G, the self-cleavage came out at 0.491. For the variant U53G U62G, the self-cleavage is 0.558. For U55A U69G, the self-cleavage was 1. As to U55A C57U, the self-cleavage is 0.369. As to U55A C57A, the self-cleavage was 0.34. Next, U55A C57G: 0.33. With A52U U61G, the self-cleavage was 0.741.

For U53C C63U, the self-cleavage is 0.786.

For A52C U64A, the self-cleavage is 0.875. The figure for G58C A60U is 0.402; for U53A A60C it is 0.324; for U53A A60G it is 0.777. In the case of U53A A60U, the self-cleavage came to 0.35. On to G58C U69C, for which the self-cleavage came to 1.07. Regarding C54U U69A, the self-cleavage came out at 1.04. Next, G56U A60C: 0.368; G58U: 0.994. Consider G58C, for which the self-cleavage worked out at 0.985. Turning to G58A, the self-cleavage stood at 0.965. For the variant U53C C66A, the self-cleavage stood at 0.386. For the variant U53C C66U, the self-cleavage is 0.801. With C57G A60C, the self-cleavage amounted to 0.258. For U53G U64A, the self-cleavage came out at 0.604. Regarding G58C C66U, the self-cleavage turned out to be 1.02.

G56A U64G: the self-cleavage stood at 0.828. As for G56A U64C, the self-cleavage was determined as 0.777. As to C54U G58U, the self-cleavage was determined as 1.02. Turning to C57A U67C, the self-cleavage amounted to 0.25. C57A U67A: the self-cleavage came to 0.275. Next, A52U U67A: 0.978; G56C U62G: 0.59; C54A G68U: 0.963. As for C54A G68C, the self-cleavage was 0.942.

For C57U A59C, the self-cleavage was found to be 0.376. The figure for A51U G58C is 0.975; for A51U G58A it is 0.941; for A52G A59C it is 0.793. A52G A59G: the self-cleavage is 0.98. Take A52G A59U: the self-cleavage came out at 0.82.

On to A52G C54G, for which the self-cleavage turned out to be 0.861. For the variant C57U C66U, the self-cleavage was 0.42. The figure for G56U C66U is 0.872.

G56U C66G: the self-cleavage turned out to be 0.552.
